Measured values published in paper PMC9897197 (Brain, 2022).

Assays:
[1] = Brain uptake; conditions: ISCP, 13.5-month-old female non-Tg vs 3xTg-AD mice; unpaired t-test
[2] = molecular target: INSRβ (Mus musculus, UniProt P15208); assay: Phosphorylation of INSRβ; assay type: in vivo; conditions: 6-month-old C57Bl6 mice
INSRβ, sequence (P15208 28-746 limits assumed): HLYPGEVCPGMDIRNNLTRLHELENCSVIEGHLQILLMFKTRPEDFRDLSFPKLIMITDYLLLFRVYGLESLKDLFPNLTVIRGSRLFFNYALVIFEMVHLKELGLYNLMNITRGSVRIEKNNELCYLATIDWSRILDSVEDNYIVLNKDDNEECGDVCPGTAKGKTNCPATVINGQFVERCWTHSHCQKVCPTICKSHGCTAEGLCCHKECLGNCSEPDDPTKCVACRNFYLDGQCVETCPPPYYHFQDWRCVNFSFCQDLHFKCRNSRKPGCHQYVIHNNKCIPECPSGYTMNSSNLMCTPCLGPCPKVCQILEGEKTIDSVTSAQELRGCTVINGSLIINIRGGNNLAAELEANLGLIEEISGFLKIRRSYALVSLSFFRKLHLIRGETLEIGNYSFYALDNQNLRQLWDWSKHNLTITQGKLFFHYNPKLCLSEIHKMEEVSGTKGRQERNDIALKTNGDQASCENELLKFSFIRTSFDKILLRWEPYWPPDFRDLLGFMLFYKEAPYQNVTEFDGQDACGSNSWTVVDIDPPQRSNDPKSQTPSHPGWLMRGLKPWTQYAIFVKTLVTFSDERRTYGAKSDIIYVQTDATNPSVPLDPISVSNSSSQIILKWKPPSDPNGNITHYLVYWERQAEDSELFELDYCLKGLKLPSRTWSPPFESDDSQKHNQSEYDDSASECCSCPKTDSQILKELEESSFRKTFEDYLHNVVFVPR
INSRβ, sequence (P15208 753-1372 limits assumed): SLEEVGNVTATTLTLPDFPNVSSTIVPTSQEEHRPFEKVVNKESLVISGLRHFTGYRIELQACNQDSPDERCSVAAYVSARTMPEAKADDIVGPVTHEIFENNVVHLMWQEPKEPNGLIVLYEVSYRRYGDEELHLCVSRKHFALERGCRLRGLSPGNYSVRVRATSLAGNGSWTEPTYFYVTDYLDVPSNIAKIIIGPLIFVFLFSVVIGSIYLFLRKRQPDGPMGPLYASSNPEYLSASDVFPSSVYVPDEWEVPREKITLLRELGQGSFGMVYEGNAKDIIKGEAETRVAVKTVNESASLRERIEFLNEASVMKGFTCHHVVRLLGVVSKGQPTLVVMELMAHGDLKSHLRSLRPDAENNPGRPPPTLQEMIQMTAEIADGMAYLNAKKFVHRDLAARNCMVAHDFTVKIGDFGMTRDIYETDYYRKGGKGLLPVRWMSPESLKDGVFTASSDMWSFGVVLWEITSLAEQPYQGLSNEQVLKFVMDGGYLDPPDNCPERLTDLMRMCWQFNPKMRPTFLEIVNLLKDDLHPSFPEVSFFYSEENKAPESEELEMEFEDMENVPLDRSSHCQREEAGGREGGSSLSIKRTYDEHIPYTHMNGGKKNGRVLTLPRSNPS

Substance | impact of 3xTg-AD transgenes on 125I-insulin transport [1] | phosphorylation of INSRβ in microvessel-depleted parenchymal fraction ([2]; ISCP 120 s, insulin 350 nM, western blot) | time to INSRβ phosphorylation after intracarotid administration ([2]; insulin 0.4 mg/kg or 350 nM, ISCP) [s]
125I-insulin: radiolabelled insulin used for transport quantification | no significant impact | – | –
insulin | – | no trace was detected | ≤ 120
